Assay results from the nanobody polyreactivity screen of Harvey et al. (2022).

Test: yeast display, Sf9 membrane polyspecificity reagent, FACS + sequencing; frameworks hold sequencing errors
Procedure, shortened: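 A nanobody's polyreactivity label depends on the gate it was sorted from. Yeast display cells were stained with 10% biotinylated, detergent-solubilized Sf9 membrane reagent for 1 hour at 4 °C, enriched on streptavidin microbeads and sorted by FACS. The low and high (top ~1%) gates were set on anti-HA fluorescence for expression and streptavidin fluorescence for reagent binding.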

Row | Sequence | polyreactivity (PSR sort gate)
1 | QVQLVESGGGLVQAGGSLRLICAAYGSTFVTNVMGWYRQAPGKERELVAAISARGGSTYYADSVKGRFTISRDNAKNTVYLQMNSLKPEDTAVYYCNAVVRPWQSYYYWGQGTQVTVSS | high polyreactivity
2 | QVQLVESGGGLVQAGGSLRLSCAASGRIFLFYAMGWYRQGPGKERALVAAINWSGTRTYYADSVKGRFTISRDNAKNSVYLHMNSLKPEDTAVYDCNVDTSVYDFSEYDYWGQGTQVTVSS | high polyreactivity
3 | QVQLVETGGGLVQAGGSLRLSCAASGFIFGYYAMGWYRQAPGKERELVADITSGGSTYYADSVKGRFIISRDNAKNTVYLQMNSLKPEDTAVYYCNKAWELVSQSLYYTEYNYWGQGTQVTVSS | low polyreactivity
4 | QVQLVQSGGGLVQAGGSLRLSCAASGRIFRYYGMGWYRQAPGKERELVAAISWNSGSTYYADSVKGRFTISRDNAKNTVYLQMNSLKPEDTAVYYCNKVLFISGYVRNYGEYEYWGQGTQVTVSS | high polyreactivity
5 | QVQLVESGGGLVQAGGSLRLSCAASGIIFRGYVMGWYRQAPGKERELVAAISRSGGRTYYADSVKGRFTISRDNAKNTVYLQMNSLKPEDTAVYYCNAVRYVLGYSYDYNYWGQGTQVTVSS | high polyreactivity
6 | QDQLVESGGGLVQAGGSLRLSCAASGRTFRWNAMGWYRQAPGKERELVAAITKSGGSTYYADSVKGRFTISRDNAKNTVYLQMNSLKPEDTAVYYCAAPRYSTFTYDYWGQGTQVTVSS | low polyreactivity
7 | QVQLVESGAGLVQAGGSLRLSCAASGRIFPGYVMGWYRQAHGKERELVAAITRGGSTYYADSVKGRFTISRDNAKNTVYLQMNSLKPDDTAVYYCAAKHSHIHYNYWGQGTQVTVSS | low polyreactivity
8 | QVQLVESGGGLVQAGGSLRLSCAASGTIFAANAMGWYRQAPGKERELVAAISSGDGTYYADSVKGRFTISRDNAKNTVYLQMNSLKPEDTAVYYCAARFTYYSGYYAGSYGYWGQGTQVTVSS | high polyreactivity
9 | QVQLQESGAGLEQAGGSLRMSCAASGYSSDIGTMGWYRQAPGKEREFVATIVVGSTTNYADSVKGRFTISRDNAKNTVYLQPESGRYRGVLLRGWLLAVGKFTYWGQGTQETVSS | low polyreactivity
10 | QVQLVESGGGLVQAGGSLRLSCAASGFIFDAYAMGWYRQAPGKERELVAAISSRGGSTYYADSVKGRFTISRDNAKNTVYLQMNSLKPEDTAVYYCAAPWYQGLDYWGQGTQVTVSS | high polyreactivity
11 | QVQLVESGGGLVQAGGSLRLSCAASGSNLLRYAMGWYRQAPGKERELVAAIRTIGASTNYADSVKGRYTISRDNAKNTVYLLMNSMKPEDTAVYYCNSYLAEVLPVGKGRLYDYWGQGTQVTVSS | low polyreactivity
12 | QDQLVESGGGLVQAGGSLRLSCAASGIIFDVYAMGWYRPAPWNERELVAGITIGDITYYADSVKGRFTISRDNAKNTVYLQMNSLKPEDTAVYYCAADSYYYQTAYDYWGQGTQVTVSS | low polyreactivity
13 | QVQLVESGGGLVQAGGSLRLSCAASGFTFSYYAMGWYRQAPGKERELVAAISFNGGRTYYADSVKGRFTISRDNAKNTVYLQMISLKPEDTAVYYCAARSLRPETLGDYWGQGTQVTVSS | high polyreactivity
14 | QVQHVDSGGGLVQAGGSLLLSCAASGFTFRTYAMGWYRQAPGKEREFVAAITTSGGSTYYADSVKGRFTISRDNAKNTVYLQMNSLKPEDTAVYYCAAKKATVVYRMEYWGQGTLVTVSS | high polyreactivity
15 | QVQLVESGGGLVQAGGSLRLSCAASGSILDHYAMGRYRQAPGKEREFVAAISIRGGSTYYADSVKGRFTISRDNEKNTVYLHMNSLKPEDTAVYYCNALSNYVYRRNDYGGQGTQVTVSS | low polyreactivity
16 | QVQLVESGGGLVQAGGSLRLSCAASGFIFWSYAMGWYRQAPGKERELVAAITRRGGSTYYADSVKGRFTISRDNAKNTVYLQMNSLKPEDTAVYYCNARRTYNGPVYPYYSGVNYWGQGTQVTVSS | high polyreactivity
17 | QVQLVESGGGLVQAGGSLRLSCAASGSTFREYTMGWYRQAPGKERELVAAITNSGGSTYYADSVKGRFTISRDNAKNTVYLQLNSLKPEDTAVYYCAAEVGIVDYDYWGQGTQVTVSS | low polyreactivity
18 | QVQLVESGGGLVQAGGSLRLSCAASGRTFDQYAMGWYTPAPGKARELVADITWSGGTTRYADSVKRRFTISRDNAKNTVYLQMNSLKPEDTAVYYCAVDVTCGYNYWGQGTQVNVSS | low polyreactivity
19 | QVQLVESGGGLVQAGGSLRLSCAASGFTFRYYAMGWYRPAPGKERELVAAISWSGGSTYYADSVKGRFTISRDNAKNTVYLQMYTLIPEDTAVYDCNAAWPGYISNRLGYDYWGQGTQVTVSS | high polyreactivity
20 | QVQRVESGGGLVQAGGSLRLSSAASGRIFWDNAMGGYRQEPGKERELVAAISDSVVITYYADSVKGRFTITRDNAKNTVYLQMNSLKPEDTAVYYCNVTGGPYDFTRWSEFDHWGQGTQETVSS | low polyreactivity
21 | QDQLVESGGGLVQAGGSLRLSCAASGRTFIRNSMGWNRQAPGKERELVAAISGTGGSTYYADSVKGRFTISRDYAKNTVYLQMNSLKPEDTAVYYCAADRPAPGYDFWGQVTQVTVSS | low polyreactivity

Row | Sequence | polyreactivity (PSR sort gate)
22 | QVQLVDSGGGLVQAGGSLRLSCAASGSTFDTNVMGWYRQAPGKERELVAAIDVSGGSTYYADSVKGRFTISRDNAKNTVYLQMNSLKPVDTAVYYCAAEDGQYGMDYWGQGTQVSVSS | low polyreactivity
23 | QVQLVESGGGLVQAGGSLRLSCAASGYTFSSNAMGWYRQATGKVSELVATNSSGGSTYYADSVKGRFTISRDNAKNTVYLQMYSLKPEDTAVYYCAADDLGWWFYSGGEDYYYWGQGTQVTVSS | low polyreactivity
24 | QVQLVESGGGLVQAGGSLRLSCAASGIIFYFYAMGWYRQAPGKERELVATITWSGTSTNYADSVKGRFTISRDNAKNTVYLQMNSLKPEDTAVYYCAARWPTGRNGYWGQGTQVTVSS | high polyreactivity
25 | RVQLVESGGGLVQAGGSLRLSCAASGLIFYYNAMVWYRQAPGKERELVAAISTGGSTNYADSVKGRFTISRYNAKNTVYLQMNSLKPEDTAVYYCAAGTRKPYGYKMYYWGQGTQVTVSS | high polyreactivity
26 | QVQLVESGGGLVQAGGSLRLTCAASGYTFGHYAMGWYRQAPGKERELVAVITSGGSTNYADSVKGRFTISRDNAKNTVYLQMNSLKPEDTAVYYCAADLYFYYVWIRDYWGQGTQVTVSS | low polyreactivity
27 | QVQLVESGGGLVQAGGSLRLSCAASGRTLPIYAMGWYRQAPGKERELVAAISWSGASTYADSVKGRFTISRDNAKYTVYLQMNSLKPEDTAVYYCAAYYESWYSSYGYGYWGQGTQVTVSS | low polyreactivity
28 | QVQLVESGGALVQAGGSLRLSCAASGRIFSSYAMGWYRQEPGKERELVAAISRSGARTYYADSVKGRFTISRDNAKYSVYLQMNSLIAEDSAVSYCAAVTVSCYDYWGQGTQVTVSS | high polyreactivity
29 | QVQLVESGGGLVQAGGSLRLSCAASGSTFFPNAMGWDRQAPGKERELVAAITRSDDDTYYADSVKGRFTISRVHAKNTVYLQMNCLKPEDTAVYYCAADGTSTDSPSWPGYEYWGQGTQVTVSS | low polyreactivity
30 | QVQLVESGGGLVQAGGSLRLSCAASGRTFYGYAMGWYRQAPGNERELVATITRRGGSTYYADSVKGRFRISRDNAKNTVYLQMNSLKPEDTAVYYCARQGDQYYRDGDDYWGQGTQVTVSS | high polyreactivity
31 | QVQLVESGGGLVQAGGSLRLSCAASGLTFYTYPMGWYRQAPGKERELVAAISSGGSTNYADSVKGRFTISRDNAKNTVYLQMNSLTPEDTAVYYCAADPSYFTYFSFDLSESDYWGKGTQVTVSS | low polyreactivity
32 | QVQLVESGGGLVQAGGSLRLSCAASGLIFGRNAMGWYRQAPGKERELVAAITSGGSTYYADSVKGRFTISRDNAKNTVYLQMNSLKPEDTAVYYCAADVVDLYLLDYWGQGTQVTVSS | low polyreactivity
33 | QVQLVESGAGLVQEVGSLRLSCAASGFTFGVNAMGSSRQAPGKERQFVASIRVRGCSTYYADSEKGRFTISRDNAKNTVYLQMNSLKPEDTAVYFCNAEVYVSSYATEMDYWGQGTQVTVSS | low polyreactivity
34 | QVQLVESGGGLVQAGGSLRLSCAASGFIFTWYTMGWSRQAPGKERELVAAITSGGNTNYADSVKGRFTISRDNAKNTVYLQMNSLKPEDTSVYYCALGYLASRLKFAKYDYWGQGTQVNVSS | high polyreactivity
35 | QVQLVESGGGLVQAGGSLRLTCAASGSTFRLYAMGWYRQAPGKERELVAGISRTGTSTYYADSVKGRFTISRDNAKTTVFLQMNSLKPEDTAVYYCAASIGGGSYWGQGTQLTVSS | high polyreactivity
36 | QVQLVESGGGLVQAGGSLRLICAASGRIFYGYAMGWYRPAPGKEREFVAAITVSAGSTYYADSVKGRFTISRDNAKNTVYLQMNSLKPEDTAVYYCAAKRYVYPSYRFDYWGQGTQVTVSS | low polyreactivity
37 | QVQLVESGGGLVQAGGSLRLICAASGITFVYYAMGWYRQAPGKERELVAAISTSGDSTYYADSVKGRFTISRDNAKNTVYLPMNSLKPEDTAVYYCAADADYYQYGWRVYYWGQGTQVTVSS | low polyreactivity
38 | QVQLVESGVRLLQAGGSLRLSCAASGITSDDNTMGWYRQAPGKERELVARIRRTGGGTYYADSVKGRFTISRDNAKNTVYLQINSLKPEDSAVYYCAAVPSWGYRFNRVPYLWVDYWGQGTQVTVSS | low polyreactivity
39 | QVQLVESGGGLVQAGGSLRLSCAASGSTFGWYAMGWYRQAPGKERELVAAINSSGDRTYYADSVKGRFTISRDNAKINVYLQMNSLKPEDTAVYYCAATYWARNWRYDYWGQGTQVTVSS | high polyreactivity
40 | QVQLVESAGGLVQAGRSLRLSCAASGYTFAKYTKGWYREATGKERELVAAISRGGSTTYADSVKGRFTISRDNAKNTVYLQMHSLKPEDTAVYYCAADVHRVVLEYDYWGQGTQVTVSS | low polyreactivity
41 | QVQLVESGGGLVQAGGSLPLSCAASGRTINTNAMGWSRQAPGKERELVAAISGGGSTYADSVKGRFTISRDNAKNTVYLQMNSLKPEDTAVYYCAAQNVWIYGFWRDYWGQGTQVTVSS | low polyreactivity
